According to the RNAGym collection of RNA variant scans (doi:10.1073/pnas.2313332121):

B1: TPR t1 (parent)
chain: GACCAAUCUGCCCUCAGAGCUCGAGAACAUCUUCGGAUGCAGAGGAGGCAGGCUUCGGUGGCGCGAUAGCGCCAACGUCCUCAACCUCCAAUGCAUCCCACCACAUGAUGAUGCCUGAAGAGCCUUGGUUUUUUG

Variants of: B1
Test: polymerase ribozyme fitness, log enrichment relative to wild type (log ratio); higher = more active; in vitro selection for triplet polymerase activity
In short: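 A single round of triplicate in vitro selection, including frozen incubation at −7 °C, was applied to PCR-built, transcribed mutant libraries of each subunit of a heterodimeric triplet polymerase ribozyme. Illumina sequencing of input and output libraries retained genotypes with ≥10 input reads and ≥1 read per output. Fitness is the base-2 logarithm of genotype enrichment divided by wild-type enrichment, from inverse-variance-weighted replicate averages.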

Variant	polymerase ribozyme fitness (log ratio)
GACCAAUCUGCCCUCAGAGCUCGAGAACAUCUUCGGAUGCAGAGGAGGCAGGCUUCGGUGGCGCGAUAGCGCCAACGUCCUCAACCUCUAAUGCAUCCCACCACAUGAUCAUGCCUGAAGAGCCUUGGUUUUUUG [C89U G110C]	-3.36
GACAAAUCUGCCCUCAGAGCUCGAGAACAUCUUCGGAUGCAGGGGAGGCAGGCUUCGGUGGCGCGAUAGCGCCAACGUCCUCAACCUCCAAUGCAUCCCACCACAUGAUGAUGCCUGAAGAGCCUUGGUCUUUUG [C4A A43G U130C]	-2.6
GACCAAUCUGUCCUCAGAGCUCGAGAACAUCUUCGGAUGUAGAGGAGGCAGGCUUCGGUGGCGCGAUAGCGCCAACGUCCUCAACCUCCAAUGCAUCCCAACACAUGAUGAUGCCUGAAGAGCCUUGGUUUUUUG [C11U C40U C101A]	-2.4
GACCAAUCUGCCCUCAGAGCUCGAGAACAUCUUCGGAUGCAGAGGAGGCAGGCUUCGGUGGCGCGAUAGCGCCAACGUCCUCAACCUCCAAUGCAUCCCACCACAGGAUGAUGCCUUAAGAGCCUUGGUUUUUUG [U106G G117U]	-4.18
GACCAAUCUGUCCUCAGAGCUCGAGAACAUCUUCGGAUGGAGAGGAGUCAGGCUUCGGUGCCGCGAUAGCGCCAACGUCCUCAACCUCCAAUGCAUUCCACCACAUGAUGAUGCCUGAAUAGCCUUGGUUUUUUG [C11U C40G G48U G61C C97U G120U]	-4.02
GCCCAAUCUGCCCUCAGAGCUCGAGAACAUCUUCGGAUGCAGAGGAGGCAGGCUUCGGUGGCGCGAUAGCGCCAACGUCCUCAACCUCCAAUGCAUCCCAUCACAUGAUGAUGCCUGAAGAGCCUUGGUUUUUUG [A2C C101U]	-1.67
GACCAAUCUGCCCUCAGAGCUCGAGAACAUCUUCGGAUGCAGAGGAGGCAGGCUUCGGUGGCGCGAUAGCGCCAACGUCCUCAACCUCCAAUGCAUCCCACCACAUGAUGAUGCCUGAUGAGCCUUGGUUUUUUG [A119U]	-0.349
GACCAAUCUGCCCUCAGAGCUCGAGAACAUCUUCGGAUGCAGAGGAGGCAGGCUUCGGUGGCGGGAUAGCGCCAACGUCCUCAACCUCCAAUGCAUCCCACCACAUGAUGAUGCCUGAAGUGCCUUGGUUUUUUG [C64G A121U]	-4.94
GACCAAUCUGCCCUCAAAGCUCGAGAACAUCUUCGGAUGCAGAGGAGACAGGCUUCGGUGGCGCGAUAGCGCCAACGUCCUCAACCUCCAAUGCCUCCCACCACAUGAUGAAGACUGAAGAGCCUUGGUUUUUUG [G17A G48A A95C U112A C114A]	-6.73
GACCAAUCUGCCCUCAGAGCUCGAGAACAUCUUCGGAUGCAGAGGAGGCAGGCUUCGGUGGCGUGAUAGCGCCAACGUCCUCAACCUCCAAUGCAUCCCACCACAUGAUGAUGGCUGAAGAGCCUUGGUUUUUUG [C64U C114G]	-2.3
GACCAAUCUGCCCUCUGAGCUCGAGAACAUCUUCGGAUGCAGAGGAGGCGGGCUUCGGUUGCGCGAUAGCGCCAACGUCCUCAACCUCCAAUGCAUGCCACCACAUGAUGAUGCCUGAAGAGCCAUGGUUUUUUG [A16U A50G G60U C97G U125A]	-7.95
GACCAAUCUGCCCUCAGAGCUCGAGAACAUCUUCGGAUGCAGAGGAGGCAGGCCUCGGUGGCGCGAUAGCGCCAACUUCCUCAACCUCCAAUGCAUCCCACCACAUGAUGAUGCCUGAAGAGCCUUGGUUUUUUG [U54C G77U]	-0.352
GACCAAUCUGCCCUCAGAUCUCGAGAACAUCUUCGGAUGCAGAGGAGGCAGGCUUCGGUGGGGCGAUAGCUCCAACGUCCUCAACCUCCAAUGCAUCCCACCACAUGAUGAUGCCUGAAGAGCCUUGGUUUUUUG [G19U C62G G71U]	-3.71
GACCAAUCUGCCCUCAGAGCUCGAGAACAUCUUCGGUUGCAGAGGAGGCAGGCUUCGGUGGCGUGAUAGCGCCAACGUCCUCAACCUCCAAUGCAUCCCACCACAUGAUGAUGCCUGAAGAGCCUUGGUUUCUUG [A37U C64U U132C]	-0.703
GACCAAUCUGCCCGGAGAGCUCGAGAACAUCUGCGGAUGAAGAGGAGGCAGGCUUCGGUGGCGCGAUAGCGCCAACGUCCUCAACCUCCAAUGCAUCCCACCACAUGAUGAUGGCUGAAGAGCCUUGGUCUUUUG [U14G C15G U33G C40A C114G U130C]	-5.88
GACCAAUCUGCCCUCAGAGCUCGAGAACAUCUUCGGAUGCAGAGGAGGCAGGCUUCGGUGGUGCGAUAGCGCCAACGUCCUCAACCACCAAAGCAUCCCACCACAUGAUGAUGCCUGAACAGCCUUGGUUUUUUG [C62U U87A U92A G120C]	-3.58
GACCAAUCCGCCCUCAGAGCUCGAGAACAUCUUCGGAUGCAGAGGAGUCAGGCUUCGGUGGCGCGAUAGCGCCAACGUCCUCAACCUCCAAUGCAUCCCACCACAUGAUGAUGCCUGAAGAGUCUUGGUUUUUUG [U9C G48U C123U]	1.12
GACCAAUCUGCGCUCAGAGCUCGAGAACAUCUUCGGAUGCAGAGGAGGCAGGCUUCGGUGGCGCGAUAGCGCCAACGUCCUCAACCUCCAAUGCAUCCCACCACAUGAUGAUGCCAGAAGAGCCUUGGUUUUUUG [C12G U116A]	-3.29
GACCAAUCUGCCCUCAGGGCUCGAGAACAUCUUCGGAUGCAGCGGAGGCAGGCAUCGGUGGCGCGAUAGCGCCAACGUCCUCAACCUCCAAUGCAUCCCACCACAUGAUGAUGCCUGAAGAGCCUUGGUUUUUUG [A18G A43C U54A]	-4.06
GACCAAUCUGCCCUCAGAGCUCGAGAACAUCUUCGGAUGCAGAGGAGGCAGGCUUCGGUGGCGCGAUAGCGCCAACGUCCUCAAUCUCCAAUGCAUCCCACCACAUGAUGAUGCCUGAAGGGCCUUGGUUUUUUG [C85U A121G]	1.61
GACCAAUCUGCCCUCAGAGCUCGAGAACAUCUUCGGAUGCAGAGGAGGCAGGCUUCCGUGGCGCGAUAGCGCCAACGUCCUCAACCUCCAAUUCAUCCCACCACAUGAUGUUCAUUGAAGAGCCAUGGUUUUUUG [G57C G93U A111U G113C C114A C115U U125A]	-7.73

Variant	polymerase ribozyme fitness (log ratio)
GACCAAUCUGCCCUCAGAGCUCGAGAACAUCUUCGGAUGAAGAGGAGGCAGGCUUGGGUGGCGCGAUAGCGCCAACGUCCUCAACCGCCAAUGCUUCCCAACACAUGAUGAUGCCUGAAGAGCAUUGGUUUUCUG [C40A C56G U87G A95U C101A C124A U133C]	-5.07
GACCAAUCUGCCCUCAGAGCUCGAGAACAUCUUCGGAUGCAGAGGAGGCAGGCUUCGGUGGCGCGAUAGCGCAAACGUCCUCAACCUCCAAUGCAUCCCACCACAUGAUGAUGCCUGAAGAGCCUUGGUUUUUUG [C73A]	0.0792
GACCAAUCUGCCCUCCGAGCUCGAGAACAUCUUCGGAUGCAGACGAGGCAGGCUUCGGUGGCGCGAUAGCGCAAACGUCCUCAACUUCCAAUGCAUCCCACCACAUGAUGAUGCCUGAAUAGCCUUGGUUUUUUG [A16C G44C C73A C86U G120U]	-2.98
GACCAAUCUGCCCUCAGAGCUCGAGAACAUCUACGGAUGCAGAGGAGGCAGGCUUCGGUGGCGCGAUAGCGCCAACGUCCUCAACCUCCAAUGCAUUCCACCACAUGAUGAUGCCUGAAGAGCCUUGGUUUUUUG [U33A C97U]	-5.53
GACCAAUCUGCCCUCAGAGCUCGAGAACAUCUUCGGAUGCAGAGGAGCCAGGCUUCGGUGGCGCGAUAGCGCCAACGUCCUCAACCUCCAAUGCAUCCCACCACAUGAUGAUGCCUGAAGAGCCUUGGUUUUGUG [G48C U133G]	-1.8
GACCAAUCUGCCCUCAGAGCUCGAGAACAUCUUCGGAUGCAGAGGAGGCAGGCUUCGGUGGCGCGAGAUCGCCAACGUCCUCAACCUCCAAUGCAUCCCACCACAUGAUGAUUCCUGAAGAGCCUUGGUUUUUUG [U67G G69U G113U]	-7.04
GACCAAUCUGCCCUCAGAGCUCGAGAACAUCUUCGGAUGCAGAGGAGGAAGGCUUCGGUGGCGUGAUAGCGCCAACGUCCUCAACCUCCAAUGCAUCCCACCACAUGAUGAUGCCUUAAGAGCCUUGGUUUUUUG [C49A C64U G117U]	-2.9
GACCAAUCUGCCCUCAGAGCUCGAGAACAUCUUCGGAUGCAGACGAGGCAGGCUUCGGUGGCGCGAUAACGCCAACGUCCUCAACCUCCAGUGCAUCCCACCCCAUGAUGAUGCUUGAAGAGCCUUGGUUUUUUG [G44C G69A A91G A103C C115U]	-5.28
GACCAAUCUGACCUCAGAGCUCGAGAACAUCUUCGGAUGCAGAGUAGGCAGGCUUCGGUGGCGCGAUAGCCCCAACGUCCUCAACCUCCAAUGCAUCCCACCACAUGAUGAUGCCUGAAGCGCCUUGGUUUAUUG [C11A G45U G71C A121C U132A]	-0.245
GACCAAUCUGCCCUCAGAGCUCGAGAACAUCUUCGGAUGCAGAGGACGCAGGCUUCGGUGGCGCGAUAGCGCUAACGUCCUCAACCUCCAAUGCAUCCCACUACAUGAUGAUGCCUGAAGAGCCUUUGUUUUUUG [G47C C73U C102U G127U]	-5.08
GACCAAUCUGCCGUCAGAGCCCGAGAACAUCUUCGGAUGCAGAGGAGGUAGGGUUCGGUGGCGCGAUAGCGCCAACGUCCUCAACCUCCAAUGCAUCCCACCACAUGAUGAUGCCUAAGGAGCCUUGGUUUUUUG [C13G U21C C49U C53G G117A A119G]	-5.71
GACCAAUCUGCCCUCAGAGCUCGAGAACAUCUUCGGAUGCAGAGGCGGCAGGCUUCGGUGGCGCGAUAGCGCCAACGUCGUCAACCUCCAAUGCAUCCCACCACAUGAUGAUGCCUGAAGAGCCUUGGUCUUUUG [A46C C80G U130C]	-6.42
GACCAAUCUGCCCUCAGAGCUCGAGAACAUCUUCGGAUGCAGAGGAGGCAGGCUUCGGUGGCGCGAUAGGGCCAACGUCCACAACCUCCAAUGCAUCCCACCACAUGAUGAUGCCUUAAAAGCCUUGGUUUUUUG [C70G U81A G117U G120A]	-5.65
GACCAAUCUGCCCUGAGAGCUCGAGAACCUCUUCGGAUGCAGAGGAGGCAGGCUUCGGUGGCGCGAUAGCCCCAACGUCCUCAACUUCCAAUGCAUCCCACCACAUGAUGAUUCCUGAAUAGCCUUGGAUUUUUG [C15G A29C G71C C86U G113U G120U U129A]	-6.08
GACCAAUCUGCCCUCAGAGCUCGAGAACAUCUUCGGAUGCAGAGGAGGCCGGCUUCGGUGGCGCGAUAGCGCCAACGUCCUCAACCUCCAAUGCAUCCCACCACAUGAUGAUGCCUGAAGAGCCUUAGUUUUUUG [A50C G127A]	-0.787
GACCAAUCUGCCCUCAGAGCUCGAGAACAUCUUAGGAUGCAGAGGAGGCAGGCUUCGGUGGCGCGAUAGCGCCAACGUCCUCAACCUCCAAUGCAUCCCACCACAUGAUGAUGCCUGAAGAGCCUUGGGUUUUUG [C34A U129G]	-3.7
GACCAAACUGCCCUCAGAGCUCGAGAACAUCUUCGGAUUCAGAGGAGGCAGGCUUCGGUGGCGCGAUAUCGCCAACGUCCUCAACCUCCAAUGCAUCCCACCACAUGAUGAUGCCUGAAGAGCCUUGGUUUUUUG [U7A G39U G69U]	0.59
GACCAAUCUGCCCUCAGAGCUCGAGAACAUCUUCGGAUGCAGAGGAGGCAGGCUUCGGUGGCACGAUAGCGCCAACGUCCUCAACCUCCAAUCCAUCCCACCACAUGAUGAUUCCUGAAGAGCCUUGGUUUUUUA [G63A G93C G113U G135A]	-4.37
GACCAAUCUGCCCUCAGAGCUCGAGAACAUCUUCGGAUGCAUAGGAGGCAGGCUUCGGUGGCGCGAUAGCGCCAGCGUCCUCAACCUCCAAUCCAUCCCACCACAUGAUGAUGCCUGAAGAGCCUUGGUUUUUUG [G42U A75G G93C]	-2.29
GACCAAUCUGCCCUCAGAGCUCGAGAACAUCUUCGUAUGCAGAGGAGGCAGGCUUCGGUGGCGCGAUAGCGCCAACGUCUUCAAUCUCCAAUGCAUCUCACAUCCGGAUGAUGCGUGAAGAGCCUUGGUUUUUUG [G36U C80U C85U C98U C102A A103U A105C U106G C115G]	-5.37
GACCAAUCUGCCCUCAGAGCUCGAGAACAUCUUCGGAUGCAGAGGAGGCAGGCUGCGGUAGCGCGAUAGCGCCAACGUCCUCAACCUCAAAUGCAUCCCACCACAUGAUGAUGACUGAAGAGCCUUGGUUUUUUG [U55G G60A C89A C114A]	-2.87
